By Kd is commonly meant the concentration at which binding is half-saturated. Higher therefore signals lower affinity. What is called EC50 is the midpoint of the concentration-response curve.

Changes are numbered by the printed parent chain.

Assay [1] addresses T1, Fzd8 CRD (human, UniProt Q9H461 30-151, limits assumed, biotinylated).
T1 construct: domain: CRD; Species 'human' comes from the specificity statements; also called Fz8; frizzled 8 cysteine rich domain
T1 sequence (looked up): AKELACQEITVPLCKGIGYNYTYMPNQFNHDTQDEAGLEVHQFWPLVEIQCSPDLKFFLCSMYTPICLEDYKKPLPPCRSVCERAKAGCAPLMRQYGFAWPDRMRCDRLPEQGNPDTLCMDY
Put plainly: SPR, biotinylated Fzd CRD captured on SA chip, DFB as analyte; SPR, Fzd8. Here is the method:
(§1) Second, individual DFB proteins were purified and surface Plasmon Resonance (SPR) used to measure the affinity between Fzd CRD with the DFB. The biotinylated Fzd CRD was captured on SA sensor chip at low density. A gradient concentration of DFB analyte was flown over the chip. The data was analyzed by BIACore accompanying software.
In general terms: Surface plasmon resonance follows binding to a sensor surface in real time, without labels.

Assay [2] has as its target T2, Fzd7 CRD (human, UniProt O75084 44-163). Put plainly: SPR: biotinylated Fzd7 CRD captured on an SA chip, 1AF34 as analyte, 63 nM down to 0.24 nM. The procedure: as §1
Assay [3] has as its target T3, Fzd1 CRD (human, UniProt Q9UP38 111-230). Put plainly: yeast surface display of DFB, titration with biotinylated Fzd CRD, flow cytometry; yeast titration, Fz1. An excerpt: (§2) To understand the affinity of individual DFBs towards different Fzd CRDs, two different methods were used to measure the specificity and affinity. DFBs were expressed on yeast surface and the yeast stained with biotinylated Fzd CRDs. The cells were washed and Streptavidin, Alexa Fluor™ 647 conjugates were used to stain the yeasts. The fluorescence signals were read on flow cytometry.
A general note: Flow cytometry measures light scatter and fluorescence of single cells or particles in a stream.

Assay [4] concerns the target T2, Fzd7 CRD. The assay is described as follows: SPR, biotinylated Fzd CRD captured on SA chip, DFB as analyte; SPR, Fzd7. The procedure:
as §1

In assay [5] the target is T2, Fzd7 CRD. Put plainly: yeast surface display of DFB, titration with biotinylated Fzd CRD, flow cytometry; yeast titration, Fz7.
From the text: as §2

The target of assay [6] is T4, Fzd2 CRD (human, UniProt Q14332 34-153). The assay is described as follows: yeast surface display of DFB, titration with biotinylated Fzd CRD, flow cytometry; yeast titration, Fz2.
From the text: as §2

Assay [7] concerns the target T3, Fzd1 CRD. The assay is described as follows: yeast surface display of ANK12, staining with biotinylated Fzd CRD and streptavidin-Alexa Fluor 647, flow cytometry.
From the text: as §2

Assay [8] has as its target T2, Fzd7 CRD. Described as above.
From the text: as §2

For assay [9], the target named is T4, Fzd2 CRD. The description is as above.
From the text: as §2

Assay [10] has as its target T5, Fzd4 CRD (human, UniProt Q9ULV1 40-161, limits assumed, biotinylated).
T5 construct: domain: CRD; also called Fz4; frizzled 4 cysteine rich domain
T5 sequence (looked up): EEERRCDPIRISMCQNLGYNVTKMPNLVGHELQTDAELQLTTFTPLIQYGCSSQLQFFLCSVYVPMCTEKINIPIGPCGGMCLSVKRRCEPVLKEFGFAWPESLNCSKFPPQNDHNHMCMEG
The assay is described as above.
From the text: as §2

Assay [11] deals with T1, Fzd8 CRD. The assay is described as follows: SPR, biotinylated Fzd CRD captured on SA chip, DFB as analyte. Here is the method:
as §1

Assay [12] deals with T1, Fzd8 CRD. The assay is described as follows: yeast surface display of DFB, titration with biotinylated Fzd CRD, flow cytometry.
From the text: as §2

The target in assay [13] is T6, Fzd5 CRD (human, UniProt Q13467 28-150, limits assumed, biotinylated).
T6 construct: domain: CRD; Species 'human' comes from the specificity statements; also called Fz5; frizzled 5 cysteine rich domain
T6 sequence (looked up): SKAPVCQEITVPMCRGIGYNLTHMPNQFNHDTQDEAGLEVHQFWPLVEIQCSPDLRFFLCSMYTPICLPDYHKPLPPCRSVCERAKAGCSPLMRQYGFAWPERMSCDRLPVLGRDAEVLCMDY
The description is as above.
From the text: as §2

For assay [14], the target named is T1, Fzd8 CRD. Put plainly: SPR: biotinylated Fzd8 CRD captured on an SA chip, 1AF34F7 as analyte, 1 uM down to 0.24 nM. The procedure:
as §1

The target in assay [15] is T6, Fzd5 CRD. Put plainly: yeast surface display titration with biotinylated Fzd CRD, flow cytometry.
For assay [16], the target named is T2, Fzd7 CRD. The assay is described as follows: SPR, biotinylated Fzd CRD captured on SA chip, DFB as analyte. Here is the method: as §1
Assay [17] concerns the target T3, Fzd1 CRD. The assay is described as follows: yeast surface display of 4AF30, staining with biotinylated Fzd CRD and streptavidin-Alexa Fluor 647, flow cytometry.
From the text: as §2

Assay [18] concerns the target T4, Fzd2 CRD. Described as above.
From the text: as §2

The target in assay [19] is T6, Fzd5 CRD. The description is as above.
From the text: as §2

Assay [20] concerns the target T5, Fzd4 CRD. The assay is described as follows: SPR, biotinylated Fzd CRD captured on SA chip, DFB as analyte. The procedure: as §1
Assay [21] has as its target T5, Fzd4 CRD. The assay is described as follows: yeast surface display of DFB, titration with biotinylated Fzd CRD, flow cytometry.
From the text: as §2

B1: 1AF34 (designed binder)
chain: SELGTRLIRAALDGNKDRVKDLIENGADVNASLMSGATPLHAAAMNGHKEVVKLLISKGADVNAQSVAGSTPLDAAAFSGHKEVVKLLISKGADVNAVNAAGLTPLHAAADNGHKEVVKLLISKGADVNAKADHGMTPLHFAAQRGHKEVVKLLISKGADLNTSAKDGATPLDMARESGNEEVVKLLEKQLE
notes: Engineered ankyrin-repeat protein; Display fusion and tags are not described; also called DFB
On to B1, for which the Kd with Fzd8 CRD [1] was determined as 23 nM; with Fzd7 CRD [2], 1.3 nM; with Fzd7 CRD [4], 1 nM. For the same molecule, the EC50 in the assay with Fzd1 CRD [3] was determined as 19 nM; with Fzd7 CRD [5] it was 5.6 nM; with Fzd2 CRD [6], 31.6 nM.

B2: ANK12 (designed binder)
chain: SELGKRLIMAALDGNKDRVKDLIENGADVNASLVSGATPLHAAAMNGHKEVVKLLISKGADVNAQSAAGSTPLAAAAINGHKEVVKLLISKGADVNAVTAAGMTPLHAAAANGHKEVVKLLISKGADVNAKADRGMTPLHFAAWRGHKEVVKLLISKGADLNTSAKDGATPLDMARESGNEEVVKLLEKQLE
notes: as for B1
In the case of B2, the binding result with Fzd1 CRD [7], in the assay with Fzd7 CRD [8], with Fzd2 CRD [9] and with Fzd4 CRD [10] was “no binding (tested: 1000 nM)” each time. This molecule came in with a dissociation constant (Kd) with Fzd8 CRD [11] of 0.2 nM. In addition, the figures for the EC50 with Fzd8 CRD [12] and in the assay with Fzd5 CRD [13] were 3.6 nM and 4.4 nM, respectively.

B3: 1AF34F7 (designed binder)
chain: B1 chain with A108D, N112D, K115N
notes: as for B1
Regarding B3, the results for the EC50 in the assay with Fzd1 CRD [3], with Fzd7 CRD [5] and with Fzd2 CRD [6] were 7.5 nM, 1.8 nM and 9.9 nM, respectively. Further, the results for the Kd in the assay with Fzd8 CRD [14] and in the assay with Fzd7 CRD [16] were 2600 nM and 1.6 nM, respectively. In addition, in the assay with Fzd5 CRD [15], the binding result was “no binding (tested: 1 µM)”.

B4: 4AF30 (designed binder)
chain: SELGKRLIRAALDGNKDRVKDLIENGADVNASLMSGTTPLYAAAMNGHKEVVKLLISKGADVNAQSVAGSTPLVAAANFGHNEVVKLLISKGADVNAVTAFGVTPLHAAAADGHKEVVKLLISKGADVNAKAGRGMTPLHIAAFRGHKEVVKLLISKGADLNTSAKDGATPLDMARESGNEEVVKLLEKQLE
notes: as for B1
In the case of B4, the binding result with Fzd1 CRD [17], in the assay with Fzd2 CRD [18] and with Fzd5 CRD [19] was “no binding (tested: 1000 nM)” each time. For the same molecule, the Kd in the assay with Fzd8 CRD [11] stood at 400 nM; with Fzd4 CRD [20] it was 1.4 nM. In the assay with Fzd4 CRD [21], this molecule returned an EC50 of 1.6 nM.

These data come from US20250034527A1 (Stanford University, published 2025).
